{"source": "paper PMC6532931", "about": "“Structures suggest a mechanism for energy coupling by a family of organic anion transporters” (PLoS Biology, 2019)", "proteins": {"B1": {"name": "DgoT (Escherichia coli) (protein)", "chain": "MVSGFAMPKIWRKLAMDIPVNAAKPGRRRYLTLVMIFITVVICYVDRANLAVASAHIQEEFGITKAEMGYVFSAFAWLYTLCQIPGGWFLDRVGSRVTYFIAIFGWSVATLFQGFATGLMSLIGLRAITGIFEAPAFPTNNRMVTSWFPEHERASAVGFYTSGQFVGLAFLTPLLIWIQEMLSWHWVFIVTGGIGIIWSLIWFKVYQPPRLTKGISKAELDYIRDGGGLVDGDAPVKKEARQPLTAKDWKLVFHRKLIGVYLGQFAVASTLWFFLTWFPNYLTQEKGITALKAGFMTTVPFLAAFVGVLLSGWVADLLVRKGFSLGFARKTPIICGLLISTCIMGANYTNDPMMIMCLMALAFFGNGFASITWSLVSSLAPMRLIGLTGGVFNFAGGLGGITVPLVVGYLAQGYGFAPALVYISAVALIGALSYILLVGDVKRVG", "notes": "full-length in pQE60, C-terminal thrombin site and decahistidine tag (kept in uptake assays, cut for crystallization); expressed in E. coli dgoT knock-out (Keio, lambda-DE3) for uptake, E. coli C41 for purification"}}, "substrate": "O=C(O)[C@H](O)[C@@H](O)[C@@H](O)[C@H](O)CO", "experiment": "cells, lysate or membranes", "type": "cell-based, Escherichia coli", "settings": "pH 6.5, 150 mM KCl, 25 °C, 30 s uptake, labelled compound, H+ symport"}
{"protein": "B1", "values": [{"measurement": "Km", "value": "18 ± 4", "unit": "µM"}]}
